Experiment [1] concerns the target T1, CD40/Fc fusion protein (human, UniProt P25942 21-193).
T1 construct: extracellular domain; also called s CD40/Fc; C40/Fc
Kind of experiment: BIAcore, CD40/Fc captured by goat anti-human IgG1 Fc; first experiment. Here is the method:
(§1) This example illustrates the binding affinities of several different CD40-L constructs. Affinity experiments were conducted by biospecific interaction analysis (BIA) using a biosensor, an instrument that combines a biological recognition mechanism with a sensing device or transducer. An exemplary biosensor is BIAcore™, from Pharmacia Biosensor AB (Uppsala, Sweden; see Faigerstam L. G., Techniques in Protein Chemistry II, ed. J. J. Villafranca, Acad. Press, NY, 1991). BIAcore™ uses the optical phenomenon surface plasmon resonance (Kretschmann and Raether, Z. Naturforschung, Teil. A 23:2135, 1968) to monitor the interaction of two biological molecules.
(§2) The biosensor chips were coated with goat anti-human IgG₁ Fc, which was used to bind CD40/Fc (prepared as described in Example 1) to the chip. The different constructs of CD40-L were then added at increasing concentrations; the chip was regenerated between the different constructs by the addition of sodium hydroxide. Two separate experiments were performed. […] The resultant data were analyzed to determine the affinity and association rate constants of the different CD40-L constructs. […]

For experiment [2], the target named is T1, CD40/Fc fusion protein. Kind of experiment: biosensor (BIAcore), CD40/Fc captured on goat anti-human IgG1 Fc; equilibrium binding curve, left panel. The protocol: as §1, §2

T1 sequence (P25942 other isoform, or with tags, fused parts or gaps limits assumed): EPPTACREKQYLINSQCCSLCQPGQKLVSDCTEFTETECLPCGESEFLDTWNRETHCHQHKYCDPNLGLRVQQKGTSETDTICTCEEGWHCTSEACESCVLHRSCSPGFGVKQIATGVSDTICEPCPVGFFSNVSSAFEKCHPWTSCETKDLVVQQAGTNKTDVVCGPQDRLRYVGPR

B1: Dimeric murine CD40-L (Fc fusion, not shown: a dimerising Fc or GST)
chain (part 1 of 2): DYKDDDDK
chain (part 2 of 2): GGGGSGGGGSGGGGSSSHRRLDKVEEEVNLHEDFVFIKKLKRCNKGEGSLSLLNCEEMRRQFEDLVKDITLNKEEKKENSFEMQRGDEDPQIAAHVVSEANSNAASVLQWAKKGYYTMKSNLVMLENGKQLTVKREGLYYVYTQVTFCSNREPSSQRPFIVGLWLKPSSGSERILLKAANTHSSSQLCEQQSVHLGGVFELQAGASVFVNVTEASQVIHRVGFSSFGLLKL
notes: also called Murine Dimer
In the case of B1, in the experiment with CD40/Fc fusion protein [1], the “Site 1 (mol/mol CD40/Fc)” value worked out at 0.05 mol/mol CD40/Fc and the “Site2 (mol/mol CD40/Fc)” value amounted to 0.14 mol/mol CD40/Fc.

B2: Trimeric human CD40-L (ligand)
chain: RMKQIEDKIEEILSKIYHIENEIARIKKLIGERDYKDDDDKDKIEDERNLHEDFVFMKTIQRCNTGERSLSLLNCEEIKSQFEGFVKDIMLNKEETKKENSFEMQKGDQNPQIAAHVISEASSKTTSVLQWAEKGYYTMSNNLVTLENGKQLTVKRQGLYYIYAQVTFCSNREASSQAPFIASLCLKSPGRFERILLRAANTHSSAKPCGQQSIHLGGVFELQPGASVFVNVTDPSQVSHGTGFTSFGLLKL
notes: also called trimeric CD40-L; CD40-L trimer
A word on the EC50 (read off the curve): it is the concentration giving half of the maximal effect. Lower therefore signals higher potency in that assay. In the case of B2, the “EC50 (read off the curve)” value with CD40/Fc fusion protein [2] was roughly 10 nM.

Values taken from patent US20030144182A1 (IMMUNEX, published 2003).
